Source: patent US7183387 (Genentech, dated 2007)
Where a chain is given by its changes, count along the chain named. Numbers in names are those of the source.

T1: human FcγRIIA-H131 α subunit extracellular domain-His6-GST fusion (human, UniProt P12318 34-217)
T1 construct: ECD-6His-GST fusion made in 293 cells; also called FcγRIIA-His131; not shown: glutathione S transferase (GST)
T1 sequence: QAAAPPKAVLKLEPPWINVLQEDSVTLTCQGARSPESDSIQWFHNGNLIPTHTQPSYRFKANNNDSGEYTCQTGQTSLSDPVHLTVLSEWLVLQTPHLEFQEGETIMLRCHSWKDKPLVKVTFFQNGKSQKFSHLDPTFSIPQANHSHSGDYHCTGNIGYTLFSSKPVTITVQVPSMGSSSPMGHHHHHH

T2: human FcγRIIA-R131 α subunit extracellular domain-His6-GST fusion (human, UniProt P12318 34-217)
T2 construct: ECD-6His-GST fusion made in 293 cells; also called FcγRIIA-Arg131; not shown: glutathione S transferase (GST)
T2 sequence: T1 sequence with H134R

T3: human FcγRIIA-R131 α subunit extracellular domain-His6-GST fusion protein (human, UniProt P12318 34-217)
T3 construct: ECD-6His-GST fusion made in 293 cells, coated on the plate; also called FcγRIIA-Arg131; not shown: glutathione S-transferase (GST)
T3 sequence: T1 sequence with H134R

T4: human FcγRIIA-H131 α subunit extracellular domain-His6-GST fusion protein (human, UniProt P12318 34-217)
T4 construct: also called FcγRIIA-His131; not shown: glutathione S-transferase (GST)
T4 sequence: T1 sequence

B1: anti-IgE E27 IgG1 variant S267(280)A (antibody)
heavy: not shown
light: DIQLTQSPSSLSASVGDRVTITCRASKPVDGEGDSYLNWYQQKPGKAPKLLIYAASYLESGVPSRFSGSGSGTDFTLTISSLQPEDFATYYCQQSHEDPYTFGQGTKVEIKRTVAAPSVFIFPPSDEQLKSGTASVVCLLNNFYPREAKVQWKVDNALQSGNSQESVTEQDSKDSTYSLSSTLTLSKADYEKHKVYACEVTHQGLSSPVTKSFNRGEC
notes: Fc variant of E27; also called IG2 15; G15
B2: anti-IgE E27 IgG1 variant Ser267Ala (antibody)
heavy: not shown
light: B1 light
notes: also called S267(280)A; S280A
B3: anti-IgE E27 IgG1 variant Lys317Ala (antibody)
heavy: not shown
light: B1 light
notes: also called K317(336)A; IG2 46
B4: anti-IgE E27 IgG1 variant Ser267Ala/His268Ala (antibody)
heavy: not shown
light: B1 light
notes: also called S267(280)A H268(281)A; IG2 96
B5: anti-IgE E27 IgG1 variant Thr307Ala (antibody)
heavy: not shown
light: B1 light
notes: also called T307(326)A; IG2 41
B6: anti-IgE E27 IgG1 variant Val305Ala (antibody)
heavy: not shown
light: B1 light
notes: also called V305(324)A; IG2 40
B7: anti-IgE E27 IgG1 variant His268Ala (antibody)
heavy: not shown
light: B1 light
notes: also called H268(281)A; H281A
B8: anti-IgE E27 IgG1 variant Asn315Ala (antibody)
heavy: not shown
light: B1 light
notes: also called IG2 45
B9: anti-IgE E27 IgG1 variant Ser267Gly (antibody)
heavy: not shown
light: B1 light
notes: also called S267(280)G; IG2 189

These binders were tested against T1, human FcγRIIA-H131 α subunit … (assay: ELISA, IgG complex, receptor coated).

| Binder | ratio of binding, variant/native IgG1 (mean) [ratio] |
| --- | --- |
| B1 | 1.05 |

The binders below were run against T2, human FcγRIIA-R131 α subunit … (assay: ELISA, IgG complex, receptor coated).

| Binder | ratio of binding, variant/native IgG1 (mean) [ratio] |
| --- | --- |
| B1 | 1.64 |

What follows are binders tested against T5, human FcγRIIIA-F158 α subunit extracellular domain-His6-GST fusion (human, UniProt P08637 17-208) (assay: ELISA, IgG complex, receptor coated).
T5 construct: ECD-6His-GST fusion made in 293 cells; also called FcγRIIIA-Phe158; not shown: glutathione S transferase (GST)
T5 sequence (P08637 other isoform, or with tags, fused parts or gaps, form in doubt): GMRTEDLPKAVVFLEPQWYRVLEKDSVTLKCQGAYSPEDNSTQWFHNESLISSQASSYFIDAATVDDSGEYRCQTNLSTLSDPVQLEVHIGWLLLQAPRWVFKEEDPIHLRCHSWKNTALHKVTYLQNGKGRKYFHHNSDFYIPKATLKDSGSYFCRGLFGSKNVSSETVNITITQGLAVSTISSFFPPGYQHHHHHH

| Binder | ratio of binding, variant/native IgG1 (mean) [ratio] |
| --- | --- |
| B1 | 1.14 |

The binders below were run against T3, human FcγRIIA-R131 α subunit … (assay: ELISA, IgG:IgE hexamer on coated FcγRIIA-R131-GST; separate assays run together with the H131 assays).

| Binder | ratio of binding of the variant to that of native IgG1 |
| --- | --- |
| B2 | 1.53 ratio (variant/native IgG1) |
| B3 | 1.1 ratio (variant/native IgG1) |
| B4 | 1.57 ratio (variant/native IgG1) |
| B5 | 1.28 ratio (variant/native IgG1) |
| B6 | 1 ratio (variant/native IgG1) |
| B7 | 1.3 ratio (variant/native IgG1) |
| B8 | 1.11 ratio (variant/native IgG1) |

Each binder was assayed against T4, human FcγRIIA-H131 α subunit … (assay: ELISA, IgG:IgE hexamer on coated FcγRIIA-H131-GST).

| Binder | ratio of binding of the variant to that of native IgG1 |
| --- | --- |
| B2 | 1.1 ratio (variant/native IgG1) |
| B9 | 0.54 ratio (variant/native IgG1) |
| B3 | 1.08 ratio (variant/native IgG1) |
| B4 | 1.02 ratio (variant/native IgG1) |
| B5 | 1.18 ratio (variant/native IgG1) |
| B6 | 1.06 ratio (variant/native IgG1) |
| B7 | 0.97 ratio (variant/native IgG1) |
| B8 | 1.1 ratio (variant/native IgG1) |

These binders were tested against T3, human FcγRIIA-R131 α subunit … (assay: ELISA, IgG:IgE hexamer on coated FcγRIIA-R131-GST; value carried over from Table 6, 7 or 8).

| Binder | ratio of binding of the variant to that of native IgG1 |
| --- | --- |
| B2 | 1.52 ratio (variant/native IgG1) |
| B9 | 1.18 ratio (variant/native IgG1) |
| B3 | 1.13 ratio (variant/native IgG1) |
| B4 | 1.41 ratio (variant/native IgG1) |
| B5 | 1.07 ratio (variant/native IgG1) |
| B6 | 1.12 ratio (variant/native IgG1) |
| B7 | 1.21 ratio (variant/native IgG1) |
| B8 | 1.15 ratio (variant/native IgG1) |

What follows are binders tested against T4, human FcγRIIA-H131 α subunit … (assay: ELISA; binding ratio on FcγRIIA-H131 divided by that on FcγRIIA-R131).

| Binder | H131/R131 |
| --- | --- |
| B2 | 0.71 ratio (H131 value/R131 value) |
| B9 | 0.47 ratio (H131 value/R131 value) |
| B3 | 0.99 ratio (H131 value/R131 value) |
| B4 | 0.65 ratio (H131 value/R131 value) |
| B5 | 0.94 ratio (H131 value/R131 value) |
| B6 | 1.08 ratio (H131 value/R131 value) |
| B7 | 0.75 ratio (H131 value/R131 value) |
| B8 | 0.99 ratio (H131 value/R131 value) |
